Experimental data reported in patent publication US20160053014A1 (SORRENTO THERAPEUTICS, published 2016).
Residue numbers refer to the chain shown, from its start.

B1: 13E10 (antibody, V domains shown)
VH: EVQLVQSGAEVKKPGASLKISCRASGYTFTRNYIHWVRQAPGQGLEWLGIINPNGGSTRYSQKFQGRVTMTRDTSTRTVYMELSSLRSEDTAVYYCAREAPKYCSGSSCYSGGVDYWGQGTLVTVSS
VL: QPVLTQPLSASGTPGQRVTISCSGSSSNIGSNYVYWYQQLPGTAPKLLIYRNYQRPSGVPDRFSGSTSGTSASLAISGLRSEDEADYHCAAWDGSMRGWVFGGGTKLTVL
notes: tested as human IgG
B2: 11E3 (antibody, V domains shown)
VH: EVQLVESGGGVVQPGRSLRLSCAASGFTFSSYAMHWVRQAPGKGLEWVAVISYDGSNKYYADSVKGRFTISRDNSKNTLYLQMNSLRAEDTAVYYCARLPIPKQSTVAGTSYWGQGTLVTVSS
VL: LPVLTQPASVSGSPGQSITISCTGTSSDVGGYNYVSWYQQHPGNAPKLMIYDVSNRPSGVSNRFSGSKSGNTASLTISGLQAEDEADYYCSSYTSSSTLYVFGTGTKLTVL
notes: tested as human IgG
B3: 12G10 (antibody, V domains shown)
VH: EVQLVESGGGVVQPGRSLRLSCAASGFTFSSYAMHWVRQAPGKGLEWVAVISYDGSNKYYADSVKGRFTISRDNSKNTLYLQMNSLRAEDTAVYYCARIAVAGTHFDYWGQGTLVTVSS
VL: SYELMQPPSVSGTPGQRVTISCSGSTSNVGSNTVNWYRQFPGTAPKLLIYANNQRPSGVPDRFSGSKSGTSASLAISGLQSENEADYYCAAWDDSLNGYVFGTGTKLTVL
notes: tested as human IgG
B4: 13E4 (antibody, V domains shown)
VH: QITLKESGGGVVQPGRSLRLSCAASGFTFSSYGMHWVRQAPGKGLEWVAVISYDGSNKYYADSVKGRFTISRDNSKNTLYLQMNSLRAEDTAVYYCANNGWATYPDYWGQGTLVTVSS
VL: QPVLTQPASVSGSPGQSITISCTGTSSDVGGYNYVSWYQQHPGKAPKLMIYDVSNRPSGVSNRFSGSKSGNTASLTISGLQAEDEADYYCSSYTSSSTLVFGGGTKLTVL
notes: tested as human IgG
B5: 13F9 (antibody, V domains shown)
VH: EVQLLESGGGLIQPGGSLRLSCAASGFIFSRYGMHWVRQAPGKGLEWVAVTSYDGRSKYYTDSVQGRFTISRDNSKNTLDLQMNSLRAEDTAVYYCARLHTVGPWHFDLWGRGTLVTVSS
VL: B4 VL with Q1S, P2Y, V3E, A8R, I18V, A45V, D52E, T72A
notes: tested as human IgG
B6: 16F8 (antibody, V domains shown)
VH: EVQLLESGGGLVQPGGSLRLSCAASGFTFSSYGMHWVRQAPGKGLEWVAVISYDGSNKYYADSVKGRFTISRDNSKNTLYLQLNSLRAEDTAVYYCARGQNLDYWGQGTLVTVSS
VL: B4 VL with V35I, D52E, T94R, L99Q
notes: tested as human IgG
B7: 12D3 (antibody, V domains shown)
VH: B6 VH with L5V, Q13K, G16R, G33A, L83M, G99L, Q100R, N101W
VL: QPVLTQPASVSGSPGQSIAISCTGTSSDVGSNNRVSWYQQHPGKAPKLMIYEVDKRPSGVSNRFSGSKSGNTASLTISGLQAEDEADYYCGTWDSSLSAYVFGTGTKLTVL
notes: tested as human IgG
B8: 11G3 (antibody, V domains shown)
VH: EVQLVQSGGGVVQPGRSLRLSCAASGFTFSSYAMHWVRQAPGKGLEWVAVISYDGSNKYYADSVKGRFTISRDNSKNTLYLQMNSLRAEDTAVYYCARLTRGSDYYGSGRSMNDYWGQGTLVTVSS
VL: DIVMTQTPLSLPVTLGQPASISCRSSQSLVHSDGNTYLNWFQQRPGQSPRRLIYKVSNRDSGVPDRFSGSGSGTDFTLKISRVEAEDVGVYYCMQGTHWPPTFGQGTKVEIK
notes: tested as human IgG
B9: 16F9 (antibody, V domains shown)
VH: EVQLVESGGEVKKPGASVKLSCKSSGYTFTSYYMHWVRQAPGQGLEWMGIINPSGGSTSSAQKFQGRVTMTRDTSTRTVYMELSSLRSEDTAVYYCARGAPNWNYARTLFDYWGQGTLVTVSS
VL: SYELTQPRSVSGSPGQSVTISCTGTSSDVGGYNSVSWYQQHPGKAPKLMIYDVSKRPSGVPDRFSGSKSGNTASLTISGLQAEDEADYYCSSYSSSTTHVVFGGGTKLTVL
notes: tested as human IgG
B10: 14E5 (antibody, V domains shown)
VH: EVQLVESGGGVVQPGRSLRLSCAASGFTFSSYGMHWVRQAPGKGLEWVAVISYDGSNKYYADSVKGRFTISRDNSKNTLYLQMNSLRAEDTAVYYCAKVYSRGSDYWGQGTLVTVSS
VL: QSVLTQPASVSGSPGQSITISCTGTSSDVGGYNYVSWYQQHPGKAPKLLIYDVSRRPSGISSRFSGSKSGNTASLTISGLQTEDDGDYYCLSYTTSRAVVFGGGTKLTVL
notes: tested as human IgG
B11: 15G11 (antibody, V domains shown)
VH: QVQLVQSGGGVVQPGGSLRLSCAASGFAFNRYGMHWVRQAPGQGLEWVAVISYDGSLKYYADSVKGRFTISRDNSNNTLYLQMNSLSADDTAVYYCAKGGAALDSWGQGTLVTVSS
VL: DVVMTQSPLSSPVTLGQPASISCRSSQSLVHSDGTTYLSWLQQRPGQPPRLLIYKISNRFSGVPDRFSGSGAGTDFTLKISRVEAEDVGVYYCMQTTQFPPMFGQGTKVEIK
notes: tested as human IgG
B12: 11A7 (antibody, human IgG1, V domains shown)
VH: EVQLVESGGGLVQPGGSLRLSCAASGFTVSSNYMSWVRQAPGKGLEWVSVIYSGGSTYYADSVKGRFTISRHNSKNTLYLQMNSLRAEDTAVYYCARGYVVWGQGTLVTVSS
VL: QPVLTQPPSVSKDLRQTATLTCTGNSNNVGNQGATWLQQHQGHPPKLLSYKNNNRPSGISERFSASRSGNTASLTITGLQPEDEADYYCSAWDSSLSAWVFGGGTQLTVL
notes: 'Antibody 11A7 is a fully human IgG1'
B13: 12D11 (antibody, V domains shown)
VH: EVQLVQSGAEVKKPGASVKVSCKASGYTFTGYYLNWVRQAPGQGLEWMGWINPNNGGTNYAQRFQGRVTMTRDTSISTAYMDLSRLRSDDTAVYYCVRGTRKYYHDSNGRRRDYYYGMDVWGQGTTVTVSS
VL: AIRMTQSPSSLSASVGDRVTITCRASQSISSYLNWYQQKPGKAPKLLIYAASSLQSGVPSKFSGSGSGTEFTLTISSLQPEDFATYYCQQYKFYPPNFGGGTKVEI
notes: tested as human IgG

biological target: T1, murine CXCR5 (murine, UniProt Q04683 1-374); assay: flow cytometry on LPS-cultured mouse spleen cells, IgG titration
T1 construct: whole, on cells; Endogenous receptor on mouse spleen cells cultured with LPS
T1 sequence (looked up): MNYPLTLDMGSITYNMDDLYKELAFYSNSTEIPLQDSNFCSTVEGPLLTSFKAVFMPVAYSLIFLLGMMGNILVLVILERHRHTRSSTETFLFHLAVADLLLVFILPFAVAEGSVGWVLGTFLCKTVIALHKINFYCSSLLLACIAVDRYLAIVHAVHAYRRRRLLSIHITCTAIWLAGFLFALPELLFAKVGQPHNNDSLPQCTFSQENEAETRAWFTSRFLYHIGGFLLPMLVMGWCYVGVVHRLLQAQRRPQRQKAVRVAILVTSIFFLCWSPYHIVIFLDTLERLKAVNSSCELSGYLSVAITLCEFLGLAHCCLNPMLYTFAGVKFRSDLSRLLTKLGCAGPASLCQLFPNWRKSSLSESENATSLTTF
Method: In this example, mouse spleen cells were harvested from either C57B1/6 or athymic nu/nu mice. Cells were cultured at 2×10⁶ per ml with LPS at 10 micrograms per ml in RPMI+10% FCS for up to 4 days at 37° C. in 5% CO2. Cells were harvested, washed and resuspended in FACS Buffer (2% Fetal Bovine Serum in PBS) at 1×10⁶ cells/ml and 50 μl (0.5×10⁵ cells) were aliquoted into the wells of a 96-well plate. Plated cells were spun down and the supernatant discarded. Cells were resuspended in 30 μl FACS Buffer containing serially diluted concentrations of CXCR5 IgG in triplicate. Plates were incubated for 1 hr at 4° C. and then washed 2x with FACS Buffer. Cells were resuspended in 50 μl goat anti-human IgG (γ-chain specific)-PE conjugated secondary antibody (Southern Biotech #2040-09) diluted 1:500 in FACS Buffer. Cells were further incubated for 30 min at 4° C. and then washed 1× with FACS Buffer. The cells were resuspended in a final volume of 30 μl FACS Buffer and analyzed using the Intellicyt Flow Cytometer. Median fluorescence in the FL-2H channel was determined using FlowJo software and EC₅₀ value was determined by plotting the data in GraphPad Prism and analyzing using a variable slope non-linear regression.

Question: How did the EC50 turn out when B1 was run?
Answer: 25 nM

Question: How did the EC50 turn out when B2 was run?
Answer: 11 nM

Question: How did the EC50 turn out when B3 was run?
Answer: 2.5 nM

Question: B4 was tested. Which EC50 did it give?
Answer: 5.5 nM

Question: For B5, which EC50 is on record?
Answer: 23 nM

Question: For B6, which EC50 is on record?
Answer: 15 nM

Question: With B7 as the binder, how does the EC50 read?
Answer: 27 nM

Question: B8 was tested. Which EC50 did it give?
Answer: 37 nM

Question: B9 was tested. Which EC50 did it give?
Answer: 3.1 nM

Question: For B10, which EC50 is on record?
Answer: 2.8 nM

Question: How did the EC50 turn out when B11 was run?
Answer: 4.8 nM

biological target: T2, human CXCR5 (human, UniProt P32302 1-372); assay: cell-based or functional assay
T2 sequence (looked up): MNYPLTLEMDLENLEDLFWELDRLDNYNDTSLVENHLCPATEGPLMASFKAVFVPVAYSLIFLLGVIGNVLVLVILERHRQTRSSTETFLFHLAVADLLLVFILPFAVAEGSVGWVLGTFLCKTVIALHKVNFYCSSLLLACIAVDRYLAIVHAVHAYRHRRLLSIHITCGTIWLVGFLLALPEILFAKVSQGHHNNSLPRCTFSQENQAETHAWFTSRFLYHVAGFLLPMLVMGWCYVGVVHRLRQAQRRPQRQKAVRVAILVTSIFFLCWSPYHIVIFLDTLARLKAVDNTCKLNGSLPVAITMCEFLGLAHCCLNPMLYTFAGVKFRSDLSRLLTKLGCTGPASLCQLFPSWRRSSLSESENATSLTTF

Question: With B12 as the binder, how does the “IC50 [nM] of mAbs in calcium flux assay using CHO-CXCR5 cells (challenge with 9 nM CXCL13)” value read?
Answer: 5 nM

biological target: T2, human CXCR5; assay: flow cytometry on CHO-CXCR5 cells, IgG titration
Excerpt: This example describes a cellular binding assay to determine the EC₅₀ for anti-CXCR5 antibodies binding to human CXCR5. […] In this example, CHO-CXCR5 cells were lifted from culture flasks using non-enzymatic Cell Dissociation Buffer—PBS based (Life Technologies #13151-014). Cells were resuspended in FACS Buffer (2% Fetal Bovine Serum in PBS) at 1×10⁶ cells/ml and […] were aliquoted into the wells of a 96-well plate. Plated cells were spun down and the supernatant discarded. Cells were resuspended in 30 μl FACS Buffer serially diluted concentrations of CXCR5 IgG in triplicate. Plates were incubated for 1 hr at 4° C. and then washed 2× with FACS Buffer. Cells were resuspended in 50 μl goat anti-human IgG (γ-chain specific)-PE conjugated secondary antibody (Southern Biotech #2040-09) diluted 1:500 in FACS Buffer. Cells were further incubated for 30 min at 4° C. and then washed 1× with FACS Buffer. The cells were resuspended in a final volume of 30 μl FACS Buffer and analyzed using the Intellicyt Flow Cytometer. Median fluorescence in the FL-2H channel was determined using FlowJo software and EC₅₀ value was determined by plotting the data in GraphPad Prism and analyzing using a variable slope non-linear regression.

Question: For B1, which EC50 is on record?
Answer: 0.7 nM

Question: B2 was tested. Which EC50 did it give?
Answer: 1.8 nM

Question: With B3 as the binder, how does the EC50 read?
Answer: 0.5 nM

Question: Which EC50 does the source give for B4 here?
Answer: 0.9 nM

Question: B5 was tested. Which EC50 did it give?
Answer: 1.6 nM

Question: Which EC50 does the source give for B6 here?
Answer: 3.6 nM

Question: With B7 as the binder, how does the EC50 read?
Answer: 1.3 nM

Question: How did the EC50 turn out when B8 was run?
Answer: 2.6 nM

Question: Which EC50 does the source give for B9 here?
Answer: 0.7 nM

Question: Which EC50 does the source give for B13 here?
Answer: 2.1 nM

Question: How did the EC50 turn out when B10 was run?
Answer: 0.3 nM

Question: How did the EC50 turn out when B11 was run?
Answer: 0.4 nM

Question: How did the EC50 turn out when B12 was run?
Answer: 0.9 nM

biological target: T2, human CXCR5; assay: cell-based or functional assay; remark: another data set of the same source

Question: Which “IC50 [nM] of mAbs in chemotaxis assay using HS-Sultan cells (25 nM CXCL13)” value does the source give for B12 here?
Answer: 4.8 nM
